These results are taken from patent US6545128 (BURNHAM INSTITUTE, dated 2003).

The test concerns the target T1, 35S-labeled in vitro translated HA-tagged BI-2 (human, UniProt Q9NZS9 1-450, 35S-labeled methionine (in vitro translation)).
T1 construct: Made by TNT rabbit reticulocyte in vitro transcription/translation; also called HA-BI-2; not shown: three copies of the HA tag at the N-terminus (vector pSN503)
T1 sequence: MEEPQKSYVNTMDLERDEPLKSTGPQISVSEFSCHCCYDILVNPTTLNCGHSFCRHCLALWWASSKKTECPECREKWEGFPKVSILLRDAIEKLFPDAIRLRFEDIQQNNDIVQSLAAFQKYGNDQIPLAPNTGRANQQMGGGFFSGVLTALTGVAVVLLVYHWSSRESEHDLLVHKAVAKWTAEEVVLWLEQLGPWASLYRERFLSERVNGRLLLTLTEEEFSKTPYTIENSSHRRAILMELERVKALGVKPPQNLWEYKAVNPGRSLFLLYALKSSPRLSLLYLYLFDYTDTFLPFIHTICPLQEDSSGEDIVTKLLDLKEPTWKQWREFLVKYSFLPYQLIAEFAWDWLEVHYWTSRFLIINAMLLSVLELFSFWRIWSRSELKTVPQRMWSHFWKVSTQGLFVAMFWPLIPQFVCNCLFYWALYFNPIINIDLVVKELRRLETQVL
Nature of the test: GST pull-down: about 5 ug GST fusion protein on glutathione SEPHAROSE, 35S-labeled in vitro translated HA-BI-2, SDS-PAGE and autoradiography. On the procedure:
Approximately 5 µg of the following fusion proteins, including GST control, GST-CD40 cytosolic domain, GST-Bcl-2, GST-Bax or GST-BI-2, were immobilized on glutathione SEPHAROSE, then 8 µl of ^35S-labeled in vitro translated HA-tagged BI-2 in binding buffer was added. After incubation at 4° C. for 2 hr, the beads were washed 5× with binding buffer and the associated proteins were eluted in Laemli sample buffer and analyzed by SDS-PAGE (10% gel). As a control, ^35S-labeled BI-2 was loaded directly into the gel, using one-quarter the amount employed for the binding experiments. Following electrophoresis, the gels were dried and exposed to X-ray film.

B1: GST-CD40 cytosolic domain (other, UniProt P25942 216-277, looked up)
chain: KKVAKKPTNKAPHPKQEPQEINFPDDLPGSNTAAPVQETLHGCQPVTQEDGKESRISVQERQ
notes: domain: cytosolic domain; Unrelated control protein; not shown: glutathione S-transferase (GST) fusion partner
On to B1, for which the binding result is “no binding”.
